Results published in US20160031986A1.

How the values were obtained:
[1] = target: cynomolgus monkey DLL4 extracellular domain (cynomolgus monkey); assay: Biacore SPR; head says nM, kd/ka gives M
[2] = target: cynomolgus monkey DLL4 extracellular domain (cynomolgus monkey); assay: binding ELISA
[3] = target: cynomolgus monkey DLL4 extracellular domain (cynomolgus monkey); assay: Biacore SPR

| Binder | Kd [1] [nM] | EC50 [2] [nM] | koff [3] [s⁻¹] | kon [3] [M⁻¹ s⁻¹] |
| --- | --- | --- | --- | --- |
| h1A11.1 (antibody, V domains shown) VH: EVQLVESGGGLVQPGGSLRLSCAASGFTFSNFPMAWVRQAPGKGLEWVATISSSDGTTYYRDSVKGRFTISRDNAKNSLYLQMNSLRAEDTAVYYCARGYYNSPFAYWGQGTLVTVSS VL: DIQMTQSPSSLSASVGDRVTITCRASEDIYSNLAWYQQKPGKAPKLLIYDTNNLADGVPSRFSGSGSGTDFTLTISSLQPEDFATYYCQQYNNYPPTFGQGTKLEIKR | 18 | 0.13 | 0.00255 | 144000 |
| h1A11.16 (antibody, V domains shown) VH: EVQLVESGGGLVQPGGSLRLSCAASGFTFSNFPMAWVRQAPGKGLEWVATISSSDGTTYYRDSVKGRFTISRDNSKSTLYLQMNSLRAEDTAVYYCSRGYYNSPFAYWGQGTLVTVSS VL: EIVMTQSPATLSVSPGERATLSCRASEDIYSNLAWYQQKPGQSPRLLIFDTNNLADGVPARFSGSGSGTESTLTISSLQSEDFAVYFCQQYNNYPPTFGQGTKLEIKR |  | 0.12 |  |  |
| 1A11 chimeric antibody (antibody, V domains shown) VH: EVQLVESGGGLVQPGRSMKLSCAASGFTFRNFPMAWVRQAPTRGLEWVATISSSDGTTYYRDSVKGRFTISRDNAKSTLYLQVNSLRSEDTATYYCSRGYYNSPFAYWGQGTLVTVSS VL: DIQMTQSPASLSASLGETVTIECRASEDIYSNLAWYQQKPGNSPQLLIFDTNNLADGVPSRFSGSGSGTQSSLKINSLQSEDVASYFCQQYNNYPPTFGGGTKLELKR |  | 0.33 |  |  |
| h1A11.A6 (antibody, V domains shown) VH: EVQLVESGGGLVQPGGSLRLSCAASGFTFRHFPMAWVRQAPGKGLEWVATISSSDAWPSYRDSVKGRFTISRDNAKNSLYLQMNSLRAEDTAVYYCSRGYYNSPFAYWGQGTLVTVSS VL: DIQMTQSPSSLSASVGDRVTITCRASEDIYSNLAWYQQKPGKAPKLLIYDTNNLADGVPSRFSGSGSGTDFTLTISSLQPEDFATYYCQQYNNYPPTFGQGTKLEIK | 0.12 |  | 2.1e-05 | 171000 |
| h1A11.C6 (antibody, V domains shown) VH: EVQLVESGGGLVQPGGSLRLSCAASGFTFRNFPMAWVRQAPGKGLEWVATISSSDGWPTYRDSVKGRFTISRDNAKSSLYLQMNSLRAEDTAVYYCSRGYYNSPFAYWGQGTLVTVSS VL: DIQMTQSPSSLSASVGDRVTITCRASEDIYSNLAWYQQKPGKAPKLLIYDTNNLADGVPSRFSGSGSGTDFTLTISSLQPEDFATYYCQQYNNYPPTFGQGTKLEIK | 0.18 |  | 3.12e-05 | 171000 |
| h1A11.G3 (antibody, V domains shown) VH: EVQLVESGGGLVQPGGSLRLSCAASGFTFRYFPMSWVRQAPGKGLEWVASISGSDGWASYRDSVKGRFTISRDNAKNSLYLQMNSLRAEDTAVYYCARGYYNSPFAYWGQGTLVTVSS VL: DIQMTQSPSSLSASVGDRVTITCRASQEIYRNLAWYQQKPGKSPKLLIFDTSVLADGVPSRFSGSGSGTDSTLTISSLQPEDFATYYCQQYTYYPPTFGQGTKLEIK | 0.17 |  | 1.73e-05 | 99000 |
| h1A11.F5 (antibody, V domains shown) VH: EVQLVESGGGLVQPGGSLRLSCAASGFTFRHFPMAWVRQAPGKGLEWVATISSSDAWPSYRDSVKGRFTISRDNAKNSLYLQMNSLRAEDTAVYYCARGYYNSPFAYWGQGTLVTVSS VL: DIQMTQSPSSLSASVGDRVTITCRASQEIYRNLAWYQQKPGKSPKLLIFDTSVLADGVPSRFSGSGSGTDSTLTISSLQPEDFATYYCQQYTYYPPTFGQGTKLEIK | 0.17 |  | 2e-05 | 118000 |
| h1A11.A8 (antibody, V domains shown) VH: EVQLVESGGGLVQPGGSLRLSCAASGFTFGNFPMSWVRQAPGKGLEWVASISSSDSWATIGDSVKGRFTISRDNAKNSLYLQMNSLRAEDTAVYYCSRGYYNSPFAYWGQGTLVTVSS VL: DIQMTQSPSSLSASVGDRVTITCRASEDIYSNLAWYQQKPGKAPKLLIYDTNNLADGVPSRFSGSGSGTDFTLTISSLQPEDFATYYCQQYNNYPPTFGQGTKLEIK | 0.15 |  | 2.4e-05 | 160000 |
| h1A11.A11 (antibody, V domains shown) VH: EVQLVESGGGLVQPGGSLRLSCAASGFTFRHFPMAWVRQAPGKGLEWVATISSSDDWPNYRDSVKGRFTISRDNAKSSLYLQMNSLRAEDTAVYYCSRGYYNSPFAYWGQGTLVTVSS VL: DIQMTQSPSSLSASVGDRVTITCRASEDIYSNLAWYQQKPGKAPKLLIYDTNNLADGVPSRFSGSGSGTDFTLTISSLQPEDFATYYCQQYNNYPPTFGQGTKLEIK | 0.2 |  | 3.35e-05 | 170000 |
| h1A11.E12 (antibody, V domains shown) VH: EVQLVESGGGLVQPGGSLRLSCAASGFTFRYFPMAWVRQAPGKGLEWVATISGSDEWPNYRDSVKGRFTISRDNAKNSLYLQMNSLRAEDTAVYYCARGYYNSPFAFWGQGTLVTVSS VL: DIQMTQSPSSLSASVGDRVTITCRASQEIYRNLAWYQQKPGKSPKLLIFDTSVLADGVPSRFSGSGSGTDSTLTISSLQPEDFATYYCQQYTYYPPTFGQGTKLEIK | 0.28 |  | 3.84e-05 | 137000 |
| h1A11.H2 (antibody, V domains shown) VH: EVQLVESGGGLVQPGGSLRLSCAASGFTFGNFPMSWVRQAPGKGLEWVASISSSDSWATIGDSVKGRFTISRDNAKNSLYLQMNSLRAEDTAVYYCARGYYNSPFAFWGQGTLVTVSS VL: DIQMTQSPSSLSASVGDRVTITCRASQEIYRNLAWYQQKPGKSPKLLIFDTSVLADGVPSRFSGSGSGTDSTLTISSLQPEDFATYYCQQYTYYPPTFGQGTKLEIK | 0.35 |  | 4.6e-05 | 131000 |
| h1A11.B5 (antibody, V domains shown) VH: EVQLVESGGGLVQPGGSLRLSCAASGFTFRYFPMSWVRQAPGKGLEWVASISGSDGWASYRDSVKGRFTISRDNAKNSLYLQMNSLRAEDTAVYYCARGYYNSPFASWGQGTLVTVSS VL: DIQMTQSPSSLSASVGDRVTITCRASQDIWNNLAWYQQKPGKSPKLLIFDTSYLADGVPSRFSGSGSGTDFTLTISSLQPEDFATYYCQQYDWYPPTFGQGTKLEIK | 1.5 |  | 0.000178 | 117000 |
| h1A11.A2 (antibody, V domains shown) VH: EVQLVESGGGLVQPGGSLRLSCAASGFTFSNFPMAWVRQAPGKGLEWVATISSSDGTTYYRDSVKGRFTISRDNAKNSLYLQMNSLRAEDTAVYYCARGYYNSPFAYWGQGTLVTVSS VL: DIQMTQSPSSLSASVGDRVTITCRASQDIYINLAWYQQKPGKSPKLLIFDTNDLADGVPSRFSGSGSGTDFTLTISSLQPEDFATYYCQQYDYVPPTFGQGTKLEIK | 3.9 |  | 0.000527 | 134000 |
| h1A11.B4 (antibody, V domains shown) VH: EVQLVESGGGLVQPGGSLRLSCAASGFTFSNFPMAWVRQAPGKGLEWVATISSSDGTTYYRDSVKGRFTISRDNAKNSLYLQMNSLRAEDTAVYYCARGYYNSPFAYWGQGTLVTVSS VL: DIQMTQSPSSLSASVGDRVTITCRASQDIYYNLAWYQQKPGKAPKLLIFDTNILADGVPSRFSGSGSGTDFTLTISSLQPEDFATYFCQQYDYVPPTFGQGTKLEIK | 6.9 |  | 0.00099 | 143000 |
| h1A11.A7 (antibody, V domains shown) VH: EVQLVESGGGLVQPGGSLRLSCAASGFTFSNFPMAWVRQAPGKGLEWVATISSSDGTTYYRDSVKGRFTISRDNAKNSLYLQMNSLRAEDTAVYYCARGYYNSPFAYWGQGTLVTVSS VL: DIQMTQSPSSLSASVGDRVTITCRASQDIYINLAWYQQKPGKAPKLLIFDTSDLADGVPSRFSGSGSGTDFTLTISSLQPEDFATYYCQQYDYYPPTFGQGTKLEIK | 7.8 |  | 0.00124 | 158000 |
| h1A11.A12 (antibody, V domains shown) VH: EVQLVESGGGLVQPGGSLRLSCAASGFTFSNFPMAWVRQAPGKGLEWVATISSSDGTTYYRDSVKGRFTISRDNAKNSLYLQMNSLRAEDTAVYYCARGYYNSPFAYWGQGTLVTVSS VL: DIQMTQSPSSLSASVGDRVTITCRASQDIYYNLAWYQQKPGKSPKLLIFDTSSLADGVPSRFSGSGSGTDFTLTISSLQPEDFATYFCQQYDWYPPTFGQGTKLEIK | 10 |  | 0.00162 | 158000 |
